# B1: VTGAVGVGK polypeptide (KRAS; SEQ ID NO: 3) (peptide)
# peptide: VTGAVGVGK
# notes: Synthesized mutant KRAS neoantigen peptide, printed as a 9-mer; also called core polypeptide
# B2: VTVGAVGVGK polypeptide (KRAS; SEQ ID NO: 4) (peptide)
# peptide: VTVGAVGVGK
# notes: Synthesized mutant KRAS neoantigen peptide; also called core polypeptide
# B3: VSVGAVGVGK polypeptide (KRAS; SEQ ID NO: 6) (peptide)
# peptide: VSVGAVGVGK
# notes: as for B2
# B4: VTVGADGVGK polypeptide (KRAS; SEQ ID NO: 1) (peptide)
# peptide: VTVGADGVGK
# notes: as for B2
# B5: VTVGAAGVGK polypeptide (KRAS; SEQ ID NO: 5) (peptide)
# peptide: VTVGAAGVGK
# notes: as for B2
# Target: T1, HLA-A*11:01 (MHC-I molecules on the surfaces of T2 cells) (human)
# T1 construct: It only names the antibody against 'the corresponding HLA typing (HLA-A*11:01)'; also called HLA molecules
# Test: T2 cell MHC-I stabilisation assay, flow cytometry with FITC anti-HLA-A*11:01 antibody
# Procedure: The synthesized polypeptides were added to 2*10⁵ T2 cells, and human β2 micro-globulin (final concentration of 3 μg/ml) was added and cultivated in 24-well plate. The plate was cultured in an incubator (37° C., 5% CO₂) overnight.
# 200 g of cultured cells was centrifuged for 5 minutes to collect the cells. After washing twice with PBS, the cells were directly incubated with FITC-labeled monoclonal antibody against the corresponding HLA typing (HLA-A*11:01), and maintained at 4° C. for 30 minutes.
row,Binder,FI (fluorescence index)
1,B1,2.37
2,B2,2.02
3,B3,2.42
4,B4,2.83
5,B5,2.12

# From patent US20220378887A1 (GENOIMMUNE THERAPEUTICS, published 2022)
